Columns and labels:
[1] = tested on: downstream genes of c-Myc in MCF7 cells; experiment: Transcriptome sequencing and RT-PCR of c-Myc downstream genes, MCF7; format: cell-based, human
Protocol: Identification at the RNA level: RNA was extracted using RNA extraction kit (RNAprep Pure Polysaccharide Polyphenol Plant Total RNA Extraction Kit (DP441), manufacturer: TIANGEN BIOTECH (BEIJING) CO., LTD.), and then cDNA was obtained using two-step reverse transcription kit (a third-generation premix for two-step de-genomization and reverse transcription, Cat. No.: MR05201). cDNA as a template was added into a 96-well plate, with addition of SYBR®Green I chimeric dye (an antibody dye quantitative PCR premix, Cat. No.: MQ10101) and gene primers for three-step qPCR amplification. Finally, the relative gene expression was calculated based on the Ct value.
And it was validated to be consistent with the transcriptome results (B in FIG. 9) by RT-PCR (the steps of method as Example 1). Wherein, the sequences of RT-PCR primers were as follows: […]
Wherein, the sequences of primers were as follows: […]

NMYC = target: T1, NMYC (Homo sapiens, UniProt P04198); experiment: Yeast two hybrid with NMYC; format: binding
T1 construct: with the full length of c-Myc and NMYC, respectively; expressed in transfected cells; host or cells: yeast Y2HGold
T1 sequence (P04198 1-464): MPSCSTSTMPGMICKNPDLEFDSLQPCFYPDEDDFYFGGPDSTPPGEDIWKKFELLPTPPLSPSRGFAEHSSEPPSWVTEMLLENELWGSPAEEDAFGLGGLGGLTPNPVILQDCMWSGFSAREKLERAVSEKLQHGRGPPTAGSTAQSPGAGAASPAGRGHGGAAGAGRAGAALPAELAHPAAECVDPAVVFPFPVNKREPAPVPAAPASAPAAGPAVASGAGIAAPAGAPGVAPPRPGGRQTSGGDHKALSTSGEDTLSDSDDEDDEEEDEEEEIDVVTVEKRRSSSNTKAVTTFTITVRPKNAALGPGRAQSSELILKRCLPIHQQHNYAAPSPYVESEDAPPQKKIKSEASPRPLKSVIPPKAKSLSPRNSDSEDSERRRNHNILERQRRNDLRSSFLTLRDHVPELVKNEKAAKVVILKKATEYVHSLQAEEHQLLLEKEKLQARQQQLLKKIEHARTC
Description: […]

B1: GhJAZ1: cotton JAZ1 protein, gene number Gh_A05G0260, sequence SEQ ID No. 4; prokaryotically expressed with His tag, about 30 KD (protein)
chain: MSSCSESTAMKPARSPEKPSFAQTCNLLSQYLKEKGSFGDLSLGMTCNVEANGTPVVPPPTMNLFPLNDKSDDVCGRNGGNPKNLTSMDLFPQQAGLASKDDSPNKLEPQTAPMTIFYGGQVIVFNDFPANKAKEIMLLASNSSSQSNNSFNPIPFTSSIARSPIESSIGVPPTSKPVHPAQRAVPGDLPIARRASLHRFLEKRKDRITAKAPYQINNSAAAPSLSGDNKSWLGLAAQSP
modifications: His tag
notes: prokaryotically expressed with His tag, about 30 KD
- expression of cell cycle-related genes (transcriptome, validated by RT-PCR) ([1]; MCF7, 0.691 μM, 24 h): down regulated
- expression of CCNE1 ([1]; MCF7, RT-PCR): extremely significantly upregulated
- expression of P21 gene ([1]; MCF7, RT-PCR): extremely significantly upregulated
- expression of apoptosis related genes Bcl2, BAX, HK2, FASN, MCM5 downstream of c-Myc ([1]; MCF7, RT-PCR): extremely significantly downregulated
- expression of cell cycle-related genes CCNA2, CCNB1, CCND1 ([1]; MCF7, RT-PCR): extremely significantly downregulated
- interaction with NMYC (NMYC): interacted
